B1: NCK2 (parent)
chain: YVERKNSLKKGSLVKNLKDTLGLG

Variants of: B1
Test: protein stability index of a GFP-peptide fusion (GPS, HEK-293T) (PSI 1-6); higher = more stable
Conditions: c terminus: a fixed tail appended
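Also: lentivirally expressed fusions sorted by FACS into six bins by GFP to DsRed ratio, PSI derived from sequencing read proportions per bin multiplied by bin number.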

Protein stability index: each site, then its substitutions
K10: G 1.93
L8: D 2.92 | Q 2.88 | S 1.99 | P 2.8 | I 2.27 | F 2.33 | N 2.55 | Y 2.14 | E 2.96 | C 2.41 | T 2.58 | V 2.16 | G 3.27
S7: Q 2.15 | C 2.22 | M 1.88 | W 3.27 | N 2.07 | F 2.66 | T 2.16 | Y 1.74 | V 1.94 | I 1.86 | R 2.22 | G 1.99 | L 2.43
K18: L 2.08 | T 2.65 | G 1.84 | S 2.07 | F 1.33 | M 1.72 | D 2.39 | R 2.46 | C 2.94 | I 2.84 | Y 2.41 | Q 2.48 | V 2.42
L21: K 2.32 | C 2.71 | Y 2.41 | N 2.33 | M 2.64 | I 2.42 | D 2.81 | F 2.18 | Q 2.3 | V 2.25 | P 2.39 | W 2.12 | E 2.74 | S 2.51 | H 2.3
G22: I 1.9 | K 2.09 | L 1.51 | P 2.44 | Q 2.31 | V 1.97 | S 2.13 | N 2.46 | T 2.37 | R 1.97 | C 2.01 | M 2.23 | E 2.34
N16: W 1.68 | H 2.28 | A 2.33 | P 2.61 | T 2.41 | Y 1.89 | G 2.3 | F 2.69 | E 2.73 | Q 1.97 | V 1.83 | M 1.3 | R 1.98 | K 2.04 | S 2.16
T20: P 2.21 | F 1.75 | M 2 | K 2.37 | G 2.45 | R 1.97 | Q 2.64 | S 2.66 | E 2.17 | A 2.33 | V 1.97 | Y 1.88 | H 1.75
S12: C 2.13 | I 2.46 | E 2.4 | D 2.79 | K 2.71 | G 2.07 | L 1.64 | M 1.75 | N 2.63 | H 1.98 | T 2.01 | V 2.38 | F 2.53 | R 2.22 | Y 2.19
E3: R 2.52 | D 1.89 | G 1.41 | W 1.96 | M 2.11 | A 1.66 | Q 1.96 | H 1.72 | Y 1.63 | C 1.83 | V 1.9
N6: G 2.38 | W 2.32 | Q 2.53 | S 2.1 | T 1.94 | H 2.61 | C 1.73 | D 2.74 | M 2.29 | F 1.58 | K 2.67 | Y 1.64 | A 2.24 | E 2.85 | L 1.1 | P 2.28
L13: A 3.01 | R 1.99 | D 2.8 | N 2.44 | M 2.22 | H 2.29 | G 2.41 | W 2.04 | E 2.87 | F 1.86 | T 2.63 | S 2.54 | Y 2.52
V2: W 2.49 | N 3.59 | C 2.47 | E 4.17 | Y 3.01 | H 2.66 | Q 3.39 | M 2.81 | G 3.19 | K 3.67 | A 3.09 | P 3.81 | L 2.71 | S 2.94 | T 3.44 | D 3.38

Source: the supplement of paper PMC10567573
